Reference: IntAct's records for PubMed 18434552

B1: Tyrosine-protein phosphatase non-receptor type 23 (Homo sapiens), Q9H3S7 (parent)
chain: MEAVPRMPMIWLDLKEAGDFHFQPAVKKFVLKNYGENPEAYNEELKKLELLRQNAVRVPRDFEGCSVLRKYLGQLHYLQSRVPMGSGQEAAVPVTWTEIFSGKSVAHEDIKYEQACILYNLGALHSMLGAMDKRVSEEGMKVSCTHFQCAAGAFAYLREHFPQAYSVDMSRQILTLNVNLMLGQAQECLLEKSMLDNRKSFLVARISAQVVDYYKEACRALENPDTASLLGRIQKDWKKLVQMKIYYFAAVAHLHMGKQAEEQQKFGERVAYFQSALDKLNEAIKLAKGQPDTVQDALRFTMDVIGGKYNSAKKDNDFIYHEAVPALDTLQPVKGAPLVKPLPVNPTDPAVTGPDIFAKLVPMAAHEASSLYSEEKAKLLREMMAKIEDKNEVLDQFMDSMQLDPETVDNLDAYSHIPPQLMEKCAALSVRPDTVRNLVQSMQVLSGVFTDVEASLKDIRDLLEEDELLEQKFQEAVGQAGAISITSKAELAEVRREWAKYMEVHEKASFTNSELHRAMNLHVGNLRLLSGPLDQVRAALPTPALSPEDKAVLQNLKRILAKVQEMRDQRVSLEQQLRELIQKDDITASLVTTDHSEMKKLFEEQLKKYDQLKVYLEQNLAAQDRVLCALTEANVQYAAVRRVLSDLDQKWNSTLQTLVASYEAYEDLMKKSQEGRDFYADLESKVAALLERTQSTCQAREAARQQLLDRELKKKPPPRPTAPKPLLPRREESEAVEAGDPPEELRSLPPDMVAGPRLPDTFLGSATPLHFPPSPFPSSTGPGPHYLSGPLPPGTYSGPTQLIQPRAPGPHAMPVAPGPALYPAPAYTPELGLVPRSSPQHGVVSSPYVGVGPAPPVAGLPSAPPPQFSGPELAMAVRPATTTVDSIQAPIPSHTAPRPNPTPAPPPPCFPVPPPQPLPTPYTYPAGAKQPIPAQHHFSSGIPAGFPAPRIGPQPQPHPQPHPSQAFGPQPPQQPLPLQHPHLFPPQAPGLLPPQSPYPYAPQPGVLGQPPPPLHTQLYPGPAQDPLPAHSGALPFPSPGPPQPPHPPLAYGPAPSTRPMGPQAAPLTIRGPSSAGQSTPSPHLVPSPAPSPGPGPVPPRPPAAEPPPCLRRGAAAADLLSSSPESQHGGTQSPGGGQPLLQPTKVDAAEGRRPQALRLIERDPYEHPERLRQLQQELEAFRGQLGDVGALDTVWRELQDAQEHDARGRSIAIARCYSLKNRHQDVMPYDSNRVVLRSGKDDYINASCVEGLSPYCPPLVATQAPLPGTAADFWLMVHEQKVSVIVMLVSEAEMEKQKVARYFPTERGQPMVHGALSLALSSVRSTETHVERVLSLQFRDQSLKRSLVHLHFPTWPELGLPDSPSNLLRFIQEVHAHYLHQRPLHTPIIVHCSSGVGRTGAFALLYAAVQEVEAGNGIPELPQLVRRMRQQRKHMLQEKLHLRFCYEAVVRHVEQVLQRHGVPPPCKPLASASISQKNHLPQDSQDLVLGGDVPISSIQATIAKLSIRPPGGLESPVASLPGPAEPPGLPPASLPESTPIPSSSPPPLSSPLPEAPQPKEEPPVPEAPSSGPPSSSLELLASLTPEAFSLDSSLRGKQRMSKHNFLQAHNGQGLRATRPSDDPLSLLDPLWTLNKT
partner: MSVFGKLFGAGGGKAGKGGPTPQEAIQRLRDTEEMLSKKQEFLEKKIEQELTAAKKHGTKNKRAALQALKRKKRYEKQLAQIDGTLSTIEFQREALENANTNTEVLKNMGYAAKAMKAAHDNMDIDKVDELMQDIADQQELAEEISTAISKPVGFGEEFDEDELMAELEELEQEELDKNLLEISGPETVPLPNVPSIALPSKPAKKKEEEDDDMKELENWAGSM

Variants of: B1
Conditions: with chm4b_human CHMP4B

| effect of a mutation on the interaction | Variant |
| --- | --- |
| disrupting interaction | L202D |
| disrupting interaction | L202D;I206D |
